B1: histone H3 peptide P1 (15-mer, residues 3-17), NH2-TKQTARKSTGGKAPR-COOH (peptide)
peptide: H-TKQTARKSTGGKAPR-OH
notes: also called 15-mer peptide; (3-17)-N-terminal H3 P1 peptide

Biological target: LegAS4 (84–532aa), RomA homolog of L. pneumophila strain Philadelphia (L. pneumophila strain Philadelphia, UniProt Q5ZUS4 84-532)
Test: crystal structure
Settings: both partners purified

| Binder | binding result |
| --- | --- |
| B1 | binds |
| H-ARTKQTARKSTG-OH (also called 12-mer peptide) [histone H3 peptide P2 (12-mer, residues 1-12), NH2-ARTKQTARKSTG-COOH] | binds |

From publication PMC10653858 (mBio, 2023)
